Results published in patent US20030037355, “Methods and compositions to modulate expression in plants” (published 2003).

Assays:
[1] = target: T1, ZFPm1 six-finger zinc finger protein (Sp1C framework) (artificial); test: ELISA, 31.0 ug/ml protein, non-target; settings: tags: MBP fusion (pMAL-C2), E. coli, hairpin
Method: (§1) Coat ELISA plates (Costar 3690) with streptavidin. Use 25 ul/well of 8 ug/ml streptavidin in PBS. Incubate at 37° C. for 1 hr. Wash 2× with dH2O. Bind wells with 25 ul/well of 4 ng/ul biotinylated target oligonucleotide in PBS. Incubate at 37° C. for 1 hr. Wash 2× with dH2O. Block with 175 ul/well of 3% BSA in Zn Buffer A. Incubate at 37° C. for 1 hr. Tap plates dry. Perform 1:2 serial dilutions of extract in Binding Buffer (1%BSA, 5 mM DTT, .12 ug/ul Salmon Sperm DNA in ZnBA). Usually from 1:4 to 1:512 for multi-target ELISA or 1:4 to 1:32 for screening clones for specific DNA binding activity. Incubate 1 hr at room temperature. Wash 8× with dH2O. Add primary antibody: 25 ul/well of 1:1000 dilution of mouse anti-MBP (Sigma M-6295) in 1%BSA ZnBA (no DTT). Incubate 30 min at room temperature. Wash 8× with dH2O. Add secondary antibody: 25 ul/well of 1:1000 dilution of goat anti-mouse/Alkaline Phosphatase (Pierce 31324) in 1%BSA ZnBA (no DTT). Incubate 30 min at room temperature. Wash 8× with dH2O. Develop with 25 ul developer (1 tablet of Sigma 104 Phosphatase Substrate (Sigma 104-105)/5 ml AP Developing Buffer [100 ml diethanolamine+0.05 g MgCl2+97.5 Sodium Azide, adjust to 500 ml with ddH2O, pH 9.88]). Incubate at room temperature for 5-60 min until color reaction is yellow. Read A405 with a plate reader.
(§2) To evaluate the specificity of new zinc finger protein, the affinity of each protein was determined for binding to the target sequence and several non-target sequences at appropriate protein concentration. For example, to protein ZFPm1 and ZFPm2, the non-target oligoes are: Oligo m34 (SEQ ID NO:20), Oligo Ap3 (SEQ ID NO:21), NRI-1 (SEQ ID NO:22), NRI-2 (SEQ ID NO:23), hHD-I (SEQ ID NO:24), hHD-II (SEQ ID NO:25), c5cl-g (SEQ ID NO:26), c5p3-g (SEQ ID NO:27), B3c2 (SEQ ID NO:28), and e2c-g (SEQ ID NO:29). Similarly, to protein ZFPm3 and ZFPm4, the non-target oligoes are Oligo m12 (SEQ ID NO:19), oligo Ap3 (SEQ ID NO:21), and the eight other oligoes. To protein ZFPAp3, the non-target oligoes are Oligo m12, oligo m34 (SEQ ID NO:20), and the eight other oligoes. The affinity reading for target oligo was further normalized to the no oligo control which has the least affinity.

[2] = target: T2, ZFPAp3 six-finger zinc finger protein (Sp1C framework) (artificial); test: ELISA, 31.0 ug/ml protein, non-target; settings: tags: MBP fusion (pMAL-C2), E. coli, hairpin
Method: as §1, §2

[3] = target: T3, ZFPm4 six-finger zinc finger protein (Sp1C framework) (artificial); test: ELISA, 15.5 ug/ml protein, non-target; settings: tags: MBP fusion (pMAL-C2), E. coli, hairpin
Method: as §1, §2

[4] = target: T4, ZFPm2 six-finger zinc finger protein (Sp1C framework) (artificial); test: ELISA, 15.5 ug/ml protein, non-target; settings: tags: MBP fusion (pMAL-C2), E. coli, hairpin
Method: as §1, §2

[5] = target: T5, ZFPm3 six-finger zinc finger protein (Sp1C framework) (artificial); test: ELISA, 1.9 ug/ml protein, non-target; settings: tags: MBP fusion (pMAL-C2), E. coli, hairpin
Method: as §1, §2

SID-ZFPAp3 = SID-ZFPAp3 (artificial); test: cell_activity; endogenous AP3, transgenic Arabidopsis ND0052-2e; 5 fold in ND0052-257; settings: tags: SID
[6] = target: T2, ZFPAp3 six-finger zinc finger protein …; test: ELISA, 31.0 ug/ml protein; settings: tags: MBP fusion (pMAL-C2), E. coli; label: 5'-biotin (ELISA); 32P (gel shift); hairpin
Method: as §1, with “Develop with 25 ul developer (1 tablet of Sigma 104 Phosphatase Substrate (Sigma 104-105)/5 ml AP Developing Buffer [100 ml diethanolamine+0.05 g MgCl2+97.5 Sodium Azide, adjust to 500 ml with ddH2O, pH 9.88]). Incubate at room temperature for 5-60 min until color reaction is yellow.” left out
(§3) To evaluate the specificity of new zinc finger protein, the affinity of each protein was determined for binding to the target sequence and several non-target sequences at appropriate protein concentration. […] The affinity reading for target oligo was further normalized to the no oligo control which has the least affinity.

[7] = target: T2, ZFPAp3 six-finger zinc finger protein …; test: EMSA; Zn Buffer A, 10% glycerol, 0.8% BSA, salmon sperm DNA, room temp; settings: tags: MBP fusion (pMAL-C2), E. coli; label: 5'-biotin (ELISA); 32P (gel shift); hairpin
Method: (§4) The affinity of the purified six-finger proteins was measured using gel shift assay. The target oligos used in the ELISA assays were radioactively labeled using [γ32P]-ddATPk and terminal transferase. Ten serial dilutions of 1:3 with the purified protein (starting with ˜1 mg/ml) in binding buffer (1 pM labeled oligo, 10% Glycerol, 0.8% BSA, 0.1 ug/ul salmon sperm DNA in Zn Buffer A) were performed. The ZFP was allowed to bind at room temperature for 1 hr. The samples were then run on 5-6% non-denaturing PAGE gel in TBE. The gel was dried and exposed with Phosphoimager. The affinity (Kd) of the ZFP was calculated from this gel. The Kd value is the concentration of the protein at which half of the labeled oligo is shifted to a higher molecular weight on the gel by binding to the ZFP. […] Most of these affinities compare favorably with the existed 6 finger proteins.

[8] = target: T4, ZFPm2 six-finger zinc finger protein …; test: ELISA, 15.5 ug/ml protein; settings: tags: MBP fusion (pMAL-C2), E. coli; label: 5'-biotin (ELISA); 32P (gel shift); hairpin
Method: as §1, with “Develop with 25 ul developer (1 tablet of Sigma 104 Phosphatase Substrate (Sigma 104-105)/5 ml AP Developing Buffer [100 ml diethanolamine+0.05 g MgCl2+97.5 Sodium Azide, adjust to 500 ml with ddH2O, pH 9.88]). Incubate at room temperature for 5-60 min until color reaction is yellow.” left out
as §3

[9] = target: T1, ZFPm1 six-finger zinc finger protein …; test: ELISA, 31.0 ug/ml protein; settings: tags: MBP fusion (pMAL-C2), E. coli; label: 5'-biotin (ELISA); 32P (gel shift); hairpin
Method: as §1, with “Develop with 25 ul developer (1 tablet of Sigma 104 Phosphatase Substrate (Sigma 104-105)/5 ml AP Developing Buffer [100 ml diethanolamine+0.05 g MgCl2+97.5 Sodium Azide, adjust to 500 ml with ddH2O, pH 9.88]). Incubate at room temperature for 5-60 min until color reaction is yellow.” left out
as §3

[10] = target: T1, ZFPm1 six-finger zinc finger protein …; test: EMSA; Zn Buffer A, 10% glycerol, 0.8% BSA, salmon sperm DNA, room temp; settings: tags: MBP fusion (pMAL-C2), E. coli; label: 5'-biotin (ELISA); 32P (gel shift); hairpin
Method: as §4

[11] = target: T4, ZFPm2 six-finger zinc finger protein …; test: as above; settings: tags: MBP fusion (pMAL-C2), E. coli; label: 5'-biotin (ELISA); 32P (gel shift); hairpin
Method: as §4

[12] = target: T3, ZFPm4 six-finger zinc finger protein …; test: ELISA, 15.5 ug/ml protein; settings: tags: MBP fusion (pMAL-C2), E. coli; label: 5'-biotin (ELISA); 32P (gel shift); hairpin
Method: as §1, with “Develop with 25 ul developer (1 tablet of Sigma 104 Phosphatase Substrate (Sigma 104-105)/5 ml AP Developing Buffer [100 ml diethanolamine+0.05 g MgCl2+97.5 Sodium Azide, adjust to 500 ml with ddH2O, pH 9.88]). Incubate at room temperature for 5-60 min until color reaction is yellow.” left out
as §3

[13] = target: T5, ZFPm3 six-finger zinc finger protein …; test: ELISA, 1.9 ug/ml protein; settings: tags: MBP fusion (pMAL-C2), E. coli; label: 5'-biotin (ELISA); 32P (gel shift); hairpin
Method: as §1, with “Develop with 25 ul developer (1 tablet of Sigma 104 Phosphatase Substrate (Sigma 104-105)/5 ml AP Developing Buffer [100 ml diethanolamine+0.05 g MgCl2+97.5 Sodium Azide, adjust to 500 ml with ddH2O, pH 9.88]). Incubate at room temperature for 5-60 min until color reaction is yellow.” left out
as §3

[14] = target: T3, ZFPm4 six-finger zinc finger protein …; test: EMSA; Zn Buffer A, 10% glycerol, 0.8% BSA, salmon sperm DNA, room temp; settings: tags: MBP fusion (pMAL-C2), E. coli; label: 5'-biotin (ELISA); 32P (gel shift); hairpin
Method: as §4

[15] = target: T5, ZFPm3 six-finger zinc finger protein …; test: as above; settings: tags: MBP fusion (pMAL-C2), E. coli; label: 5'-biotin (ELISA); 32P (gel shift); hairpin
Method: as §4

[16] = label: 5'-biotin (ELISA), 32P (gel shift)

T1 sequence (chain, as listed by the source): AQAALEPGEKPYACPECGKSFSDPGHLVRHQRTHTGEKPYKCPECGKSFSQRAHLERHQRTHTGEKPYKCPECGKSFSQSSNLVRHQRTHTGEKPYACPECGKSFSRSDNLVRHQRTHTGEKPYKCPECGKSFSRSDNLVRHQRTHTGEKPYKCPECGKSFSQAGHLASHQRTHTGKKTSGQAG
T4 sequence (chain, as listed by the source): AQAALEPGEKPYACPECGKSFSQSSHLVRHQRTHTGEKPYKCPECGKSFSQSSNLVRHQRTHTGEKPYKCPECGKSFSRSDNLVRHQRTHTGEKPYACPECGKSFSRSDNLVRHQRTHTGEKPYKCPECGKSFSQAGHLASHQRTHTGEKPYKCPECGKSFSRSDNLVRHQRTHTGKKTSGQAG
T2 sequence (chain, as listed by the source): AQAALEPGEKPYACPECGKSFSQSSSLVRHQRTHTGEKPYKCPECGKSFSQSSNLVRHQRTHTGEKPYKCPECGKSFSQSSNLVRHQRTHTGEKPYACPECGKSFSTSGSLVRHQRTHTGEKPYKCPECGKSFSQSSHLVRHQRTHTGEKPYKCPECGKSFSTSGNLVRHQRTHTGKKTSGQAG
T5 sequence (chain, as listed by the source): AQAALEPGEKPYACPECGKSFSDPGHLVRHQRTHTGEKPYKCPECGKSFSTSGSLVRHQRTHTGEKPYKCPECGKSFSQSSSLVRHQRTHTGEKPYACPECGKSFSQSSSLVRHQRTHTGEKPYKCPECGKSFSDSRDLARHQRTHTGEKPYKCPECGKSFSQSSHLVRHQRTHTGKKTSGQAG
T3 sequence (chain, as listed by the source): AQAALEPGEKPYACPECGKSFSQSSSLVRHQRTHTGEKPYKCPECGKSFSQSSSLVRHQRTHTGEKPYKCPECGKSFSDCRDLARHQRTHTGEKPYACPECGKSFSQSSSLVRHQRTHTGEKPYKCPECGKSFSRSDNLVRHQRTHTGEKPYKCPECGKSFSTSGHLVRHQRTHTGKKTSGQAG

Row | Binder | binding signal ([1]; label: 5'-biotin) | binding signal ([2]; label: 5'-biotin) | binding signal ([3]; label: 5'-biotin) | binding signal ([4]; label: 5'-biotin) | binding signal ([5]; label: 5'-biotin) | binding signal [1, 16] | binding signal [3, 16] | binding signal [4, 16] | binding signal [5, 16] | binding signal [2, 16] | further results
1 | GGTTCTACCCCTCCCACCGCGGGTTTTCCCGCGGTGGGAGGGGTAGAACC (dsDNA) [NRI-1] | 5 fold over no oligo | 8 fold over no oligo | 5 fold over no oligo | 7 fold over no oligo | 4 fold over no oligo |  |  |  |  |  | 
2 | AP3 endogenous target site (dsDNA) DNA 1: GATGGAGTTGAAGAAGTA DNA 2: TACTTCTTCAACTCCATC |  |  |  |  |  |  |  |  |  |  | activity (SID-ZFPAp3): 46 fold repression
3 | Ap3 hairpin oligo (dsDNA) DNA: GGTTACTTCTTCAACTCCATCGGGTTTTCCCGATGGAGTTGAAGAAGTAACC |  |  |  |  |  | 4 fold over no oligo | 2 fold over no oligo | 3 fold over no oligo | 7 fold over no oligo |  | binding signal [6]: 27 fold over no oligo; Kd [7]: 2.3 nM
4 | GGCTCTGCTCATCCCACTACGGGTTTTCCCGTAGTGGGATGAGCAGAGCC (dsDNA) [c5p3-g] | 3 fold over no oligo | 2 fold over no oligo | 2 fold over no oligo | 3 fold over no oligo | 3 fold over no oligo |  |  |  |  |  | 
5 | m12 hairpin oligo (dsDNA) DNA: GGAGCCTCCTTCCTCCTCTCACTCGGGTTTTCCCGAGTGAGAGGAGGAAGGAGGCTCC |  |  |  |  |  |  | 4 fold over no oligo |  | 3 fold over no oligo | 14 fold over no oligo | binding signal [8]: 23 fold over no oligo; binding signal [9]: 18 fold over no oligo; Kd [10]: 2 nM; Kd [11]: 7.5 nM
6 | m34 hairpin oligo (dsDNA) DNA: GGAGCCAACTACTACGGCTCCCTCACCGGGTTTTCCCGGTGAGGGAGCCGTAGTAGTTGGCTCC |  |  |  |  |  | 5 fold over no oligo |  | 13 fold over no oligo |  | 10 fold over no oligo | binding signal [12]: 16 fold over no oligo; binding signal [13]: 13 fold over no oligo; Kd [14]: 0.25 nM; Kd [15]: 0.18 nM
